B1: 367C3A3-VH1-VL2 (antibody, IgG4, V domains shown)
VH: QVQLVQSGSELKKPGASVKVSCKASGYTFTDYSMHWVRQAPGQGLEWMGWINTETGEPTYADDFKGRFVFSLDTSVSTAYLQISSLKAEDTAVYYCARYDYAMDYWGQGTLVTVSS
VL: DIQMTQSPSTLSASVGDRVTITCKASQDVSSAVAWYQQKSGKAPKLLIYWASIRHTGVPSRFSGSGSGTEFTLTISSLQPDDFATYYCQQRYTTPPTFGGGTKVEIK
notes: Humanized mAb; Only VH and VL are tied to it
B2: 367C3A3-VH2-VL1 (antibody, IgG4, V domains shown)
VH: QVQLVQSGAEVKKPGASVKVSCKASGYTFTDYSMHWVRQAPGQRLEWMGWINTETGEPTYADDFKGRVTITRDTSASTAYMELSSLRSEDTAVYYCARYDYAMDYWGQGTLVTVSS
VL: DIQMTQSPSSLSASVGDRVTITCKASQDVSSAVAWYQQKPGKAPKLLIYWASIRHTGVPSRFSGSGSGTDFTLTISSLQPEDFATYYCQQRYTTPPTFGGGTKVEIK
notes: as for B1
B3: 367C3A3-VH2-VL2 (antibody, IgG4, V domains shown)
VH: QVQLVQSGAEVKKPGASVKVSCKASGYTFTDYSMHWVRQAPGQRLEWMGWINTETGEPTYADDFKGRVTITRDTSASTAYMELSSLRSEDTAVYYCARYDYAMDYWGQGTLVTVSS
VL: DIQMTQSPSTLSASVGDRVTITCKASQDVSSAVAWYQQKSGKAPKLLIYWASIRHTGVPSRFSGSGSGTEFTLTISSLQPDDFATYYCQQRYTTPPTFGGGTKVEIK
notes: as for B1
B4: 382A3E3-VH1-VL3 (antibody, IgG4, V domains shown)
VH: EVQLVESGGGLVQPGGSLRLSCAASGFTFSDYGMSWVRQAPGKGLEWVSFISNVAYGIFYADTVTGRFTISRDNAKNSLYLQMNSLRAEDTAVYYCARDELGRFDYWGQGTLVTVSS
VL: DIQMTQSPSSLSASVGDRVTITCHVSQNINIWLSWYQQKPGKAPKLLIYKASNLHTGVPSRFSGSGSGTDFTLTISSLQPEDFATYYCQQGQTFPRTFGGGTKVEIK
notes: as for B1
B5: 379E7A6-VH1-VL2 (antibody, IgG4, V domains shown)
VH: EVQLLESGGGLVQPGGSLRLSCAASGFTFSDYGMAWVRQAPGKGLEWVSFISNVAYSKFYVDTVTGRFTISRDNSKNTLYLQMNSLRAEDTAVYYCARDELGRFPYWGQGTLVTVSS
VL: DIQMTQSPSTLSASVGDRVTITCHVSHNINIWLNWYQQKPGKAPKLLIYKASNLHTGVPSRFSGSGSGTEFTLTISSLQPDDFATYYCQQGQTFPRTFGGGTKVEIK
notes: as for B1
B6: 382A3E3-VH2-VL5 (antibody, IgG4, V domains shown)
VH: QVQLVESGGGVVQPGGSLRLSCAASGFTFSDYGMSWVRQAPGKGLEWVAFISNVAYGIFYADTVTGRFTISRDNSKNTLYLQMNSLRAEDTAVYYCAKDELGRFDYWGQGTLVTVSS
VL: DIQLTQSPSFLSASVGDRVTITCHVSQNINIWLSWYQQKPGKAPKLLIYKASNLHTGVPSRFSGSGSGTEFTLTISSLQPEDFATYYCQQGQTFPRTFGGGTKVEIK
notes: as for B1
B7: 382A3E3-VH1-VL2 (antibody, V domains shown)
VH: EVQLVESGGGLVQPGGSLRLSCAASGFTFSDYGMSWVRQAPGKGLEWVSFISNVAYGIFYADTVTGRFTISRDNAKNSLYLQMNSLRAEDTAVYYCARDELGRFDYWGQGTLVTVSS
VL: DIQMTQSPSTLSASVGDRVTITCHVSQNINIWLSWYQQKPGKAPKLLIYKASNLHTGVPSRFSGSGSGTEFTLTISSLQPDDFATYYCQQGQTFPRTFGGGTKVEIK
notes: Humanized mAb expressed in CHO-3E7
B8: 379E7A6-VH1-VL1 (antibody, IgG4, V domains shown)
VH: EVQLLESGGGLVQPGGSLRLSCAASGFTFSDYGMAWVRQAPGKGLEWVSFISNVAYSKFYVDTVTGRFTISRDNSKNTLYLQMNSLRAEDTAVYYCARDELGRFPYWGQGTLVTVSS
VL: DIQMTQSPSSLSASVGDRVTITCHVSHNINIWLNWYQQKPGKAPKLLIYKASNLHTGVPSRFSGSGSGTDFTFTISSLQPEDIATYYCQQGQTFPRTFGGGTKVEIK
notes: as for B1
B9: 382A3E3-VH1-VL4 (antibody, IgG4, V domains shown)
VH: EVQLVESGGGLVQPGGSLRLSCAASGFTFSDYGMSWVRQAPGKGLEWVSFISNVAYGIFYADTVTGRFTISRDNAKNSLYLQMNSLRAEDTAVYYCARDELGRFDYWGQGTLVTVSS
VL: DIQMTQSPSSLSASVGDRVTITCHVSQNINIWLSWYQQKPGKVPKLLIYKASNLHTGVPSRFSGSGSGTDFTLTISSLQPEDVATYYCQQGQTFPRTFGQGTKVEIK
notes: as for B1
B10: 382A3E3-VH1-VL5 (antibody, IgG4, V domains shown)
VH: EVQLVESGGGLVQPGGSLRLSCAASGFTFSDYGMSWVRQAPGKGLEWVSFISNVAYGIFYADTVTGRFTISRDNAKNSLYLQMNSLRAEDTAVYYCARDELGRFDYWGQGTLVTVSS
VL: DIQLTQSPSFLSASVGDRVTITCHVSQNINIWLSWYQQKPGKAPKLLIYKASNLHTGVPSRFSGSGSGTEFTLTISSLQPEDFATYYCQQGQTFPRTFGGGTKVEIK
notes: as for B1

The target in the assay is T1, 人4-1BB (human, UniProt Q07011 24-255).
T1 construct: whole, on cells; also called TNFRSF9; CD137
T1 sequence (Q07011 24-255): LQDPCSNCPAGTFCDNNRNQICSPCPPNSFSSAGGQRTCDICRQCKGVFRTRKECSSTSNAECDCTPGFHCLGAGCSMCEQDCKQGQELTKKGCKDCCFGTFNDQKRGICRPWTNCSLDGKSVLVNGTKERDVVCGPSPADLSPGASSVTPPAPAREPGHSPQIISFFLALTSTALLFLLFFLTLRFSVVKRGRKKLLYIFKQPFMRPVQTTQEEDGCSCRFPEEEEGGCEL
As to the kind of experiment: FACS on HEK293 cells expressing human 4-1BB, 1.0 ug/ml.
In the case of B1, the binding result is recorded as “binds”.
Consider B2, for which the binding result is “binds”.
As to B3, the binding result was “binds”.
The same measure for B4: “binds”; for B5: “binds”.
The same measure for B6: “binds”; for B7: “binds”; for B8: “binds”.
The same measure for B9: “binds”; for B10: “binds”.

The values above are taken from patent CN117255804A (GENSCRIPT NANJING CO LTD, dated 2023).
